Results as given in the supplement of paper PMC5998384.

Legend:
HeLa Kyoto [1] = assay: melting temperature (median over replicates), in situ; higher = more thermally stable
HeLa Kyoto [2] = assay: thermal stability score vs G1/S (z-score of summed log2 fold changes over temperatures); higher = more thermally stable than in G1/S
[3] = cell cycle stage: early G1 (4.5 h after nocodazole release)
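Throughout, for melting temperature (median over replicates), in situ: HeLa Kyoto cells synchronized by double thymidine or nocodazole block, proteins quantified by TMT10plex mass spectrometry, three independent biological replicates.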
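Throughout, for thermal stability score vs G1/S (z-score of summed log2 fold changes over temperatures): synchronized HeLa Kyoto cells, proteins quantified by TMT10plex mass spectrometry, three biological replicates, mitosis taken 0.5 h after nocodazole release, G1/S directly after double thymidine block.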

Sequence	melting temperature (HeLa Kyoto [1]; cell cycle stage: G1/S)	melting temperature (HeLa Kyoto [1]; cell cycle stage: mitosis)	thermal stability score (HeLa Kyoto [2]; [3])	thermal stability score (HeLa Kyoto [2]; cell cycle stage: mitosis)
MEAAVAPGRDAPAPAASQPSGCGKHNSPERKVYMDYNATTPLEPEVIQAMTKAMWEAWGNPSSPYSAGRKAKDIINAARESLAKMIGGKPQDIIFTSGGTESNNLVIHSVVKHFHANQTSKGHTGGHHSPVKGAKPHFITSSVEHDSIRLPLEHLVEEQVAAVTFVPVSKVSGQAEVDDILAAVRPTTRLVTIMLANNETGIVMPVPEISQRIKALNQERVAAGLPPILVHTDAAQALGKQRVDVEDLGVDFLTIVGHKFYGPRIGALYIRGLGEFTPLYPMLFGGGQERNFRPGTENTPMIAGLGKAAELVTQNCEAYEAHMRDVRDYLEERLEAEFGQKRIHLNSQFPGTQRLPNTCNFSIRGPRLQGHVVLAQCRVLMASVGAACHSDHGDQPSPVLLSYGVPFDVARNALRLSVGRSTTRAEVDLVVQDLKQAVAQLEDQA [SCLY]	55.4 °C	51.5 °C	-0.479	-0.778
MEFDCEGLRRLLGKYKFRDLTVEELRNVNVFFPHFKYSMDTYVFKDSSQKDLLNFTGTIPVMYQGNTYNIPIRFWILDSHPFAPPICFLKPTANMGILVGKHVDAQGRIYLPYLQNWSHPKSVIVGLIKEMIAKFQEELPMYSLSSSDEARQVDLLAYIAKITEGVSDTNSKSWANHENKTVNKITVVGGGELGIACTLAISAKGIADRLVLLDLSEGTKGATMDLEIFNLPNVEISKDLSASAHSKVVIFTVNSLGSSQSYLDVVQSNVDMFRALVPALGHYSQHSVLLVASQPVEIMTYVTWKLSTFPANRVIGIGCNLDSQRLQYIITNVLKAQTSGKEVWVIGEQGEDKVLTWSGQEEVVSHTSQVQLSNRAMELLRVKGQRSWSVGLSVADMVDSIVNNKKKVHSVSALAKGYYDINSEVFLSLPCILGTNGVSEVIKTTLKEDTVTEKLQSSASSIHSLQQQLKL [UEVLD]	49.9 °C	50.1 °C	-0.401	0.298
MELWPCLAAALLLLLLLVQLSRAAEFYAKVALYCALCFTVSAVASLVCLLRHGGRTVENMSIIGWFVRSFKYFYGLRFEVRDPRRLQEARPCVIVSNHQSILDMMGLMEVLPERCVQIAKRELLFLGPVGLIMYLGGVFFINRQRSSTAMTVMADLGERMVRENLKVWIYPEGTRNDNGDLLPFKKGAFYLAVQAQVPIVPVVYSSFSSFYNTKKKFFTSGTVTVQVLEAIPTSGLTAADVPALVDTCHRAMRTTFLHISKTPQENGATAGSGVQPAQ [AGPAT2]		52.2 °C	-0.0581	0.548
MGLEAQRLPGAEEAPVRVALRVRPLLPKELLHGHQSCLQVEPGLGRVTLGRDRHFGFHVVLAEDAGQEAVYQACVQPLLEAFFEGFNATVFAYGQTGSGKTYTMGEASVASLLEDEQGIVPRAMAEAFKLIDENDLLDCLVHVSYLEVYKEEFRDLLEVGTASRDIQLREDERGNVVLCGVKEVDVEGLDEVLSLLEMGNAARHTGATHLNHLSSRSHTVFTVTLEQRGRAPSRLPRPAPGQLLVSKFHFVDLAGSERVLKTGSTGERLKESIQINSSLLALGNVISALGDPQRRGSHIPYRDSKITRILKDSLGGNAKTVMIACVSPSSSDFDETLNTLNYASRAQNIRNRATVNWRPEAERPPEETASGARGPPRHRSETRIIHRGRRAPGPATASAAAAMRLGAECARYRACTDAAYSLLRELQAEPGLPGAAARKVRDWLCAVEGERSALSSASGPDSGIESASVEDQAAQGAGGRKEDEGAQQLLTLQNQVARLEEENRDFLAALEDAMEQYKLQSDRLREQQEEMVELRLRLELVRPGWGGPRLLNGLPPGSFVPRPHTAPLGGAHAHVLGMVPPACLPGDEVGSEQRGEQVTNGREAGAELLTEVNRLGSGSSAASEEEEEEEEPPRRTLHLRRNRISNCSQRAGARPGSLPERKGPELCLEELDAAIPGSRAVGGSKARVQARQVPPATASEWRLAQAQQKIRELAINIRMKEELIGELVRTGKAAQALNRQHSQRIRELEQEAEQVRAELSEGQRQLRELEGKELQDAGERSRLQEFRRRVAAAQSQVQVLKEKKQATERLVSLSAQSEKRLQELERNVQLMRQQQGQLQRRLREETEQKRRLEAEMSKRQHRVKELELKHEQQQKILKIKTEEIAAFQRKRRSGSNGSVVSLEQQQKIEEQKKWLDQEMEKVLQQRRALEELGEELHKREAILAKKEALMQEKTGLESKRLRSSQALNEDIVRVSSRLEHLEKELSEKSGQLRQGSAQSQQQIRGEIDSLRQEKDSLLKQRLEIDGKLRQGSLLSPEEERTLFQLDEAIEALDAAIEYKNEAITCRQRVLRASASLLSQCEMNLMAKLSYLSSSETRALLCKYFDKVVTLREEQHQQQIAFSELEMQLEEQQRLVYWLEVALERQRLEMDRQLTLQQKEHEQNMQLLLQQSRDHLGEGLADSRRQYEARIQALEKELGRYMWINQELKQKLGGVNAVGHSRGGEKRSLCSEGRQAPGNEDELHLAPELLWLSPLTEGAPRTREETRDLVHAPLPLTWKRSSLCGEEQGSPEELRQREAAEPLVGRVLPVGEAGLPWNFGPLSKPRRELRRASPGMIDVRKNPL [KIF7]	52.4 °C	51.4 °C	1.88	2.73
MREIVHIQAGQCGNQIGAKFWEVISDEHGIDPSGNYVGDSDLQLERISVYYNEASSHKYVPRAILVDLEPGTMDSVRSGAFGHLFRPDNFIFGQSGAGNNWAKGHYTEGAELVDSVLDVVRKECENCDCLQGFQLTHSLGGGTGSGMGTLLISKVREEYPDRIMNTFSVVPSPKVSDTVVEPYNATLSIHQLVENTDETYCIDNEALYDICFRTLKLATPTYGDLNHLVSATMSGVTTSLRFPGQLNADLRKLAVNMVPFPRLHFFMPGFAPLTARGSQQYRALTVPELTQQMFDAKNMMAACDPRHGRYLTVATVFRGRMSMKEVDEQMLAIQSKNSSYFVEWIPNNVKVAVCDIPPRGLKMSSTFIGNSTAIQELFKRISEQFTAMFRRKAFLHWYTGEGMDEMEFTEAESNMNDLVSEYQQYQDATAEEEGEMYEDDEEESEAQGPK [TUBB3]	52.3 °C	54.3 °C	-0.669	0.329
MREIVHIQAGQCGNQIGAKFWEVISDEHGIDPTGSYHGDSDLQLERINVYYNEAAGNKYVPRAILVDLEPGTMDSVRSGPFGQIFRPDNFVFGQSGAGNNWAKGHYTEGAELVDSVLDVVRKESESCDCLQGFQLTHSLGGGTGSGMGTLLISKIREEYPDRIMNTFSVMPSPKVSDTVVEPYNATLSVHQLVENTDETYSIDNEALYDICFRTLKLTTPTYGDLNHLVSATMSGVTTCLRFPGQLNADLRKLAVNMVPFPRLHFFMPGFAPLTSRGSQQYRALTVPELTQQMFDSKNMMAACDPRHGRYLTVAAIFRGRMSMKEVDEQMLNVQNKNSSYFVEWIPNNVKTAVCDIPPRGLKMSATFIGNSTAIQELFKRISEQFTAMFRRKAFLHWYTGEGMDEMEFTEAESNMNDLVSEYQQYQDATADEQGEFEEEEGEDEA [TUBB2A]	56.7 °C	54.9 °C	-0.598	-2.95
MREYKLVVLGSGGVGKSALTVQFVQGIFVEKYDPTIEDSYRKQVEVDAQQCMLEILDTAGTEQFTAMRDLYMKNGQGFALVYSITAQSTFNDLQDLREQILRVKDTDDVPMILVGNKCDLEDERVVGKEQGQNLARQWNNCAFLESSAKSKINVNEIFYDLVRQINRKTPVPGKARKKSSCQLL [RAP1B]	58.5 °C	58.5 °C	-0.701	-1.33
MRLVILDNYDLASEWAAKYICNRIIQFKPGQDRYFTLGLPTGSTPLGCYKKLIEYHKNGHLSFKYVKTFNMDEYVGLPRNHPESYHSYMWNNFFKHIDIDPNNAHILDGNAADLQAECDAFENKIKEAGGIDLFVGGIGPDGHIAFNEPGSSLVSRTRLKTLAMDTILANAKYFDGDLSKVPTMALTVGVGTVMDAREVMILITGAHKAFALYKAIEEGVNHMWTVSAFQQHPRTIFVCDEDATLELRVKTVKYFKGLMHVHNKLVDPLFSMKDGN [GNPDA2]	58.1 °C	58.3 °C	-0.549	-0.194
MRSPVRDLARNDGEESTDRTPLLPGAPRAEAAPVCCSARYNLAILAFFGFFIVYALRVNLSVALVDMVDSNTTLEDNRTSKACPEHSAPIKVHHNQTGKKYQWDAETQGWILGSFFYGYIITQIPGGYVASKIGGKMLLGFGILGTAVLTLFTPIAADLGVGPLIVLRALEGLGEGVTFPAMHAMWSSWAPPLERSKLLSISYAGAQLGTVISLPLSGIICYYMNWTYVFYFFGTIGIFWFLLWIWLVSDTPQKHKRISHYEKEYILSSLRNQLSSQKSVPWVPILKSLPLWAIVVAHFSYNWTFYTLLTLLPTYMKEILRFNVQENGFLSSLPYLGSWLCMILSGQAADNLRAKWNFSTLCVRRIFSLIGMIGPAVFLVAAGFIGCDYSLAVAFLTISTTLGGFCSSGFSINHLDIAPSYAGILLGITNTFATIPGMVGPVIAKSLTPDNTVGEWQTVFYIAAAINVFGAIFFTLFAKGEVQNWALNDHHGHRH [SLC17A5]	57.3 °C	57.6 °C	-3.39	-4.02
MSLLNCENSCGSSQSESDCCVAMASSCSAVTKDDSVGGTASTGNLSSSFMEEIQGYDVEFDPPLESKYECPICLMALREAVQTPCGHRFCKACIIKSIRDAGHKCPVDNEILLENQLFPDNFAKREILSLMVKCPNEGCLHKMELRHLEDHQAHCEFALMDCPQCQRPFQKFHINIHILKDCPRRQVSCDNCAASMAFEDKEIHDQNCPLANVICEYCNTILIREQMPNHYDLDCPTAPIPCTFSTFGCHEKMQRNHLARHLQENTQSHMRMLAQAVHSLSVIPDSGYISEVRNFQETIHQLEGRLVRQDHQIRELTAKMETQSMYVSELKRTIRTLEDKVAEIEAQQCNGIYIWKIGNFGMHLKCQEEEKPVVIHSPGFYTGKPGYKLCMRLHLQLPTAQRCANYISLFVHTMQGEYDSHLPWPFQGTIRLTILDQSEAPVRQNHEEIMDAKPELLAFQRPTIPRNPKGFGYVTFMHLEALRQRTFIKDDTLLVRCEVSTRFDMGSLRREGFQPRSTDAGV [TRAF6]	51.5 °C	51.3 °C	0.286	-0.125
MSSVQSQQEQLSQSDPSPSPNSCSSFELIDMDAGSLYEPVSPHWFYCKIIDSKETWIPFNSEDSQQLEEAYSSGKGCNGRVVPTDGGRYDVHLGERMRYAVYWDELASEVRRCTWFYKGDKDNKYVPYSESFSQVLEETYMLAVTLDEWKKKLESPNREIIILHNPKLMVHYQPVAGSDDWGSTPTEQGRPRTVKRGVENISVDIHCGEPLQIDHLVFVVHGIGPACDLRFRSIVQCVNDFRSVSLNLLQTHFKKAQENQQIGRVEFLPVNWHSPLHSTGVDVDLQRITLPSINRLRHFTNDTILDVFFYNSPTYCQTIVDTVASEMNRIYTLFLQRNPDFKGGVSIAGHSLGSLILFDILTNQKDSLGDIDSEKDSLNIVMDQGDTPTLEEDLKKLQLSEFFDIFEKEKVDKEALALCTDRDLQEIGIPLGPRKKILNYFSTRKNSMGIKRPAPQPASGANIPKESEFCSSSNTRNGDYLDVGIGQVSVKYPRLIYKPEIFFAFGSPIGMFLTVRGLKRIDPNYRFPTCKGFFNIYHPFDPVAYRIEPMVVPGVEFEPMLIPHHKGRKRMHLELREGLTRMSMDLKNNLLGSLRMAWKSFTRAPYPALQASETPEETEAEPESTSEKPSDVNTEETSVAVKEEVLPINVGMLNGGQRIDYVLQEKPIESFNEYLFALQSHLCYWESEDTVLLVLKEIYQTQGIFLDQPLQ [DDHD2]	55.4 °C	54.7 °C	1.25	0.742
MTQNKLKLCSKANVYTEVPDGGWGWAVAVSFFFVEVFTYGIIKTFGVFFNDLMDSFNESNSRISWIISICVFVLTFSAPLATVLSNRFGHRLVVMLGGLLVSTGMVAASFSQEVSHMYVAIGIISGLGYCFSFLPTVTILSQYFGKRRSIVTAVASTGECFAVFAFAPAIMALKERIGWRYSLLFVGLLQLNIVIFGALLRPIFIRGPASPKIVIQENRKEAQYMLENEKTRTSIDSIDSGVELTTSPKNVPTHTNLELEPKADMQQVLVKTSPRPSEKKAPLLDFSILKEKSFICYALFGLFATLGFFAPSLYIIPLGISLGIDQDRAAFLLSTMAIAEVFGRIGAGFVLNREPIRKIYIELICVILLTVSLFAFTFATEFWGLMSCSIFFGFMVGTIGGTHIPLLAEDDVVGIEKMSSAAGVYIFIQSIAGLAGPPLAGLLVDQSKIYSRAFYSCAAGMALAAVCLALVRPCKMGLCQHHHSGETKVVSHRGKTLQDIPEDFLEMDLAKNEHRVHVQMEPV [SLC16A6]	54.8 °C	54.4 °C	-2.68	-4.18
